System: Escherichia coli TOP10
Assay: shrunken log2 fold change of peptide-encoding DNA abundance (4.5 h post-induction vs induction); higher = less antimicrobial activity (less host growth inhibition)
Details: time post-induction: 4.5 h; library: site-saturation at positions 5, 18, 19, 20
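Note: peptides expressed intracellularly from a pBAD plasmid library in pooled LB shake-flask culture, induced with 0.3% L-arabinose, DNA abundance read by NGS, three biological replicates, DESeq2 with apeglm shrinkage.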

RRIRGRPPRLPRPRPRPGLDPRP
shrunken log2 fold change: 1.24

RRIRGRPPRLPRPRPRPGMEPRP
shrunken log2 fold change: 1.54

RRIRGRPPRLPRPRPRPGNFPRP
shrunken log2 fold change: -0.00767

RRIRGRPPRLPRPRPRPGNQPRP
shrunken log2 fold change: -0.0828

RRIRGRPPRLPRPRPRPGNRPRP
shrunken log2 fold change: 0.333

RRIRGRPPRLPRPRPRPGNTPRP
shrunken log2 fold change: 0.171

RRIRGRPPRLPRPRPRPGPLPRP
shrunken log2 fold change: 0.363

RRIRGRPPRLPRPRPRPGQPPRP
shrunken log2 fold change: 0.462

RRIRGRPPRLPRPRPRPGRRPRP
shrunken log2 fold change: 0.849

RRIRGRPPRLPRPRPRPGSKPRP
shrunken log2 fold change: 0.0737

RRIRGRPPRLPRPRPRPGSTPRP
shrunken log2 fold change: 0.75

RRIRGRPPRLPRPRPRPGSYPRP
shrunken log2 fold change: -0.242

RRIRGRPPRLPRPRPRPGTCPRP
shrunken log2 fold change: 0.165

RRIRGRPPRLPRPRPRPGTDPRP
shrunken log2 fold change: 0.472

RRIRGRPPRLPRPRPRPGTQPRP
shrunken log2 fold change: 0.143

RRIRGRPPRLPRPRPRPGVNPRP
shrunken log2 fold change: 0.075

RRIRGRPPRLPRPRPRPGWVPRP
shrunken log2 fold change: 0.892

RRIRGRPPRLPRPRPRPGYHPRP
shrunken log2 fold change: 0.0713

RRIRGRPPRLPRPRPRPHAMPRP
shrunken log2 fold change: 0.171

RRIRGRPPRLPRPRPRPHASPRP
shrunken log2 fold change: 0.585

RRIRGRPPRLPRPRPRPHCDPRP
shrunken log2 fold change: 3.63

RRIRGRPPRLPRPRPRPHCEPRP
shrunken log2 fold change: 0.22

RRIRGRPPRLPRPRPRPHCTPRP
shrunken log2 fold change: -0.0815

RRIRGRPPRLPRPRPRPHDDPRP
shrunken log2 fold change: 0.0376

RRIRGRPPRLPRPRPRPHDGPRP
shrunken log2 fold change: 0.0288

RRIRGRPPRLPRPRPRPHERPRP
shrunken log2 fold change: 0.878

RRIRGRPPRLPRPRPRPHFCPRP
shrunken log2 fold change: 0.117

RRIRGRPPRLPRPRPRPHFNPRP
shrunken log2 fold change: 0.232

RRIRGRPPRLPRPRPRPHFYPRP
shrunken log2 fold change: 0.324

RRIRGRPPRLPRPRPRPHGRPRP
shrunken log2 fold change: 0.182

RRIRGRPPRLPRPRPRPHHGPRP
shrunken log2 fold change: 0.0719

RRIRGRPPRLPRPRPRPHIAPRP
shrunken log2 fold change: 2.17

RRIRGRPPRLPRPRPRPHIEPRP
shrunken log2 fold change: 1.15

RRIRGRPPRLPRPRPRPHKDPRP
shrunken log2 fold change: 0.11

RRIRGRPPRLPRPRPRPHLVPRP
shrunken log2 fold change: 0.294

RRIRGRPPRLPRPRPRPHMGPRP
shrunken log2 fold change: 0.121

RRIRGRPPRLPRPRPRPHNEPRP
shrunken log2 fold change: 0.264

RRIRGRPPRLPRPRPRPHNKPRP
shrunken log2 fold change: -0.09

RRIRGRPPRLPRPRPRPHNYPRP
shrunken log2 fold change: -0.248

RRIRGRPPRLPRPRPRPHPYPRP
shrunken log2 fold change: 0.0786

RRIRGRPPRLPRPRPRPHQMPRP
shrunken log2 fold change: 0.532

RRIRGRPPRLPRPRPRPHSEPRP
shrunken log2 fold change: 0.194

RRIRGRPPRLPRPRPRPHTHPRP
shrunken log2 fold change: 0.0537

RRIRGRPPRLPRPRPRPHTIPRP
shrunken log2 fold change: 0.151

RRIRGRPPRLPRPRPRPHVCPRP
shrunken log2 fold change: 0.359

RRIRGRPPRLPRPRPRPHVKPRP
shrunken log2 fold change: -0.0605

RRIRGRPPRLPRPRPRPHVTPRP
shrunken log2 fold change: 0.00976

RRIRGRPPRLPRPRPRPHWGPRP
shrunken log2 fold change: 0.247

RRIRGRPPRLPRPRPRPHWHPRP
shrunken log2 fold change: 0.0418

RRIRGRPPRLPRPRPRPHWIPRP
shrunken log2 fold change: -0.304

RRIRGRPPRLPRPRPRPIDGPRP
shrunken log2 fold change: 0.245

RRIRGRPPRLPRPRPRPIETPRP
shrunken log2 fold change: 0.312

RRIRGRPPRLPRPRPRPIGFPRP
shrunken log2 fold change: 0.061

RRIRGRPPRLPRPRPRPIHVPRP
shrunken log2 fold change: -0.315

RRIRGRPPRLPRPRPRPIICPRP
shrunken log2 fold change: 0.026

RRIRGRPPRLPRPRPRPIIGPRP
shrunken log2 fold change: -0.0822

RRIRGRPPRLPRPRPRPIIKPRP
shrunken log2 fold change: 0.237

RRIRGRPPRLPRPRPRPIISPRP
shrunken log2 fold change: 0.507

RRIRGRPPRLPRPRPRPIKEPRP
shrunken log2 fold change: -0.104

RRIRGRPPRLPRPRPRPIKSPRP
shrunken log2 fold change: 0.326

RRIRGRPPRLPRPRPRPILIPRP
shrunken log2 fold change: 0.191

RRIRGRPPRLPRPRPRPILMPRP
shrunken log2 fold change: -0.05

RRIRGRPPRLPRPRPRPIPCPRP
shrunken log2 fold change: 0.184

RRIRGRPPRLPRPRPRPIPLPRP
shrunken log2 fold change: 0.16

RRIRGRPPRLPRPRPRPIPQPRP
shrunken log2 fold change: 0.358

RRIRGRPPRLPRPRPRPIPRPRP
shrunken log2 fold change: 0.519

RRIRGRPPRLPRPRPRPIPTPRP
shrunken log2 fold change: 0.00615

RRIRGRPPRLPRPRPRPIQWPRP
shrunken log2 fold change: 0.325

RRIRGRPPRLPRPRPRPIRDPRP
shrunken log2 fold change: 0.0394

RRIRGRPPRLPRPRPRPISEPRP
shrunken log2 fold change: 0.0792

RRIRGRPPRLPRPRPRPISLPRP
shrunken log2 fold change: -0.228

RRIRGRPPRLPRPRPRPITHPRP
shrunken log2 fold change: 0.0909

RRIRGRPPRLPRPRPRPIVMPRP
shrunken log2 fold change: -0.0978

RRIRGRPPRLPRPRPRPIVNPRP
shrunken log2 fold change: 0.187

RRIRGRPPRLPRPRPRPIVWPRP
shrunken log2 fold change: 0.381

RRIRGRPPRLPRPRPRPIYCPRP
shrunken log2 fold change: 0.112

RRIRGRPPRLPRPRPRPKAHPRP
shrunken log2 fold change: 0.625

RRIRGRPPRLPRPRPRPKAIPRP
shrunken log2 fold change: 0.363

RRIRGRPPRLPRPRPRPKARPRP
shrunken log2 fold change: 0.208

RRIRGRPPRLPRPRPRPKDFPRP
shrunken log2 fold change: -0.0214

RRIRGRPPRLPRPRPRPKEMPRP
shrunken log2 fold change: 0.5

RRIRGRPPRLPRPRPRPKHCPRP
shrunken log2 fold change: 0.216

RRIRGRPPRLPRPRPRPKICPRP
shrunken log2 fold change: -0.0723

RRIRGRPPRLPRPRPRPKIDPRP
shrunken log2 fold change: 0.372

RRIRGRPPRLPRPRPRPKIQPRP
shrunken log2 fold change: 0.369

RRIRGRPPRLPRPRPRPKKHPRP
shrunken log2 fold change: 0.655

RRIRGRPPRLPRPRPRPKLPPRP
shrunken log2 fold change: 0.821

RRIRGRPPRLPRPRPRPKLSPRP
shrunken log2 fold change: -0.0523

RRIRGRPPRLPRPRPRPKMCPRP
shrunken log2 fold change: 0.102

RRIRGRPPRLPRPRPRPKNIPRP
shrunken log2 fold change: -0.101

RRIRGRPPRLPRPRPRPKQCPRP
shrunken log2 fold change: 0.103

RRIRGRPPRLPRPRPRPKQTPRP
shrunken log2 fold change: 0.175

RRIRGRPPRLPRPRPRPKSEPRP
shrunken log2 fold change: 0.9

RRIRGRPPRLPRPRPRPKSIPRP
shrunken log2 fold change: -0.0446

RRIRGRPPRLPRPRPRPKTRPRP
shrunken log2 fold change: 0.884

RRIRGRPPRLPRPRPRPKVCPRP
shrunken log2 fold change: 0.232

RRIRGRPPRLPRPRPRPKVQPRP
shrunken log2 fold change: 1.06

RRIRGRPPRLPRPRPRPKWHPRP
shrunken log2 fold change: 0.542

RRIRGRPPRLPRPRPRPKWWPRP
shrunken log2 fold change: 1.13

RRIRGRPPRLPRPRPRPKYHPRP
shrunken log2 fold change: 0.00515

RRIRGRPPRLPRPRPRPLAEPRP
shrunken log2 fold change: 2.89

RRIRGRPPRLPRPRPRPLAIPRP
shrunken log2 fold change: 0.567

RRIRGRPPRLPRPRPRPLATPRP
shrunken log2 fold change: 2.95

RRIRGRPPRLPRPRPRPLCIPRP
shrunken log2 fold change: 0.366

RRIRGRPPRLPRPRPRPLEAPRP
shrunken log2 fold change: 1.44

RRIRGRPPRLPRPRPRPLFDPRP
shrunken log2 fold change: 0.548

RRIRGRPPRLPRPRPRPLFIPRP
shrunken log2 fold change: -0.234

RRIRGRPPRLPRPRPRPLFKPRP
shrunken log2 fold change: 0.337

RRIRGRPPRLPRPRPRPLFPPRP
shrunken log2 fold change: 0.406

RRIRGRPPRLPRPRPRPLFQPRP
shrunken log2 fold change: 0.266

RRIRGRPPRLPRPRPRPLGMPRP
shrunken log2 fold change: 0.575

RRIRGRPPRLPRPRPRPLHDPRP
shrunken log2 fold change: 0.748

RRIRGRPPRLPRPRPRPLHGPRP
shrunken log2 fold change: 0.212

RRIRGRPPRLPRPRPRPLHPPRP
shrunken log2 fold change: 0.697

RRIRGRPPRLPRPRPRPLIDPRP
shrunken log2 fold change: 1.36

RRIRGRPPRLPRPRPRPLMDPRP
shrunken log2 fold change: 1.04

RRIRGRPPRLPRPRPRPLMYPRP
shrunken log2 fold change: -0.00226

RRIRGRPPRLPRPRPRPLNHPRP
shrunken log2 fold change: 0.0752

RRIRGRPPRLPRPRPRPLPMPRP
shrunken log2 fold change: 0.666

RRIRGRPPRLPRPRPRPLPVPRP
shrunken log2 fold change: 0.572

RRIRGRPPRLPRPRPRPLRWPRP
shrunken log2 fold change: 1.33

RRIRGRPPRLPRPRPRPLSLPRP
shrunken log2 fold change: 0.419

RRIRGRPPRLPRPRPRPLSQPRP
shrunken log2 fold change: 0.872

RRIRGRPPRLPRPRPRPLSTPRP
shrunken log2 fold change: 1.13

RRIRGRPPRLPRPRPRPLTEPRP
shrunken log2 fold change: 1.22

RRIRGRPPRLPRPRPRPLTNPRP
shrunken log2 fold change: 0.364

RRIRGRPPRLPRPRPRPLVAPRP
shrunken log2 fold change: 1.16

RRIRGRPPRLPRPRPRPLVHPRP
shrunken log2 fold change: -0.0335

RRIRGRPPRLPRPRPRPLWPPRP
shrunken log2 fold change: 0.836

RRIRGRPPRLPRPRPRPLWSPRP
shrunken log2 fold change: 0.117

RRIRGRPPRLPRPRPRPMAKPRP
shrunken log2 fold change: 0.658

RRIRGRPPRLPRPRPRPMASPRP
shrunken log2 fold change: 0.176

RRIRGRPPRLPRPRPRPMCDPRP
shrunken log2 fold change: 1.07

RRIRGRPPRLPRPRPRPMEPPRP
shrunken log2 fold change: 0.245

RRIRGRPPRLPRPRPRPMFGPRP
shrunken log2 fold change: 0.39

RRIRGRPPRLPRPRPRPMFTPRP
shrunken log2 fold change: 0.522

RRIRGRPPRLPRPRPRPMGYPRP
shrunken log2 fold change: 0.111

RRIRGRPPRLPRPRPRPMHYPRP
shrunken log2 fold change: -0.165

RRIRGRPPRLPRPRPRPMILPRP
shrunken log2 fold change: -0.0452

RRIRGRPPRLPRPRPRPMKMPRP
shrunken log2 fold change: 0.00988

RRIRGRPPRLPRPRPRPMKRPRP
shrunken log2 fold change: 0.343

RRIRGRPPRLPRPRPRPMLFPRP
shrunken log2 fold change: 0.935

RRIRGRPPRLPRPRPRPMMQPRP
shrunken log2 fold change: 1

RRIRGRPPRLPRPRPRPMMYPRP
shrunken log2 fold change: 0.163

RRIRGRPPRLPRPRPRPMQFPRP
shrunken log2 fold change: 0.184

RRIRGRPPRLPRPRPRPMSQPRP
shrunken log2 fold change: 0.213

RRIRGRPPRLPRPRPRPMWPPRP
shrunken log2 fold change: 1.07

RRIRGRPPRLPRPRPRPMWSPRP
shrunken log2 fold change: 0.89

RRIRGRPPRLPRPRPRPMYPPRP
shrunken log2 fold change: 0.244

RRIRGRPPRLPRPRPRPNAYPRP
shrunken log2 fold change: 0.426
